Target: SARS-CoV-2 nucleoprotein (NP) (SARS-CoV-2, UniProt P0DTC9 1-419)

Binder: GGGGGGGGGGGG (structured_RNA, phosphorothioate linkages) [TAMRA-G12(S)]
- binding result: binds
